Data as given in patent publication US20240392020A1 (JIANGSU HENGRUI PHARMACEUTICALS, published 2024).
Substitutions are numbered along the chain they refer to.

T1: CEA on MKN45 cells (UniProt P06731 35-685)
T1 construct: whole, on cells
T1 sequence (looked up): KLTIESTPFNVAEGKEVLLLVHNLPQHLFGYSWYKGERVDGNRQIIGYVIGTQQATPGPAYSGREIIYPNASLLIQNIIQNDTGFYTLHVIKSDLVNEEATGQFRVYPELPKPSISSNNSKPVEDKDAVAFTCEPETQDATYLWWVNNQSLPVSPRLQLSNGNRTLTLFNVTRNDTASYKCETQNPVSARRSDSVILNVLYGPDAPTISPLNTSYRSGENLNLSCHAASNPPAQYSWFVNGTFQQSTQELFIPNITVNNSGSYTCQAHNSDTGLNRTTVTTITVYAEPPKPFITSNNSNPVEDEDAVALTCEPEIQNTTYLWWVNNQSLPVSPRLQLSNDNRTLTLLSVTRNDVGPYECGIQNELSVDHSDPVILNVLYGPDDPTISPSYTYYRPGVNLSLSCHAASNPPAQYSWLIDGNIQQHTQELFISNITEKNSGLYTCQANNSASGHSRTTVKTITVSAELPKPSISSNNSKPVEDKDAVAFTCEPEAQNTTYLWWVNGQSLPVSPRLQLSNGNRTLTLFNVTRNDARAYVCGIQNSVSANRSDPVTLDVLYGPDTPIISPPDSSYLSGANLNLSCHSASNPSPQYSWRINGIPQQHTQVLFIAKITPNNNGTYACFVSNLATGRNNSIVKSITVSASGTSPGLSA

T2: B7H3 on the recombinant cell line CT26-B7H3 (UniProt Q5ZPR3 29-534, limits assumed)
T2 construct: whole, on cells
T2 sequence (looked up): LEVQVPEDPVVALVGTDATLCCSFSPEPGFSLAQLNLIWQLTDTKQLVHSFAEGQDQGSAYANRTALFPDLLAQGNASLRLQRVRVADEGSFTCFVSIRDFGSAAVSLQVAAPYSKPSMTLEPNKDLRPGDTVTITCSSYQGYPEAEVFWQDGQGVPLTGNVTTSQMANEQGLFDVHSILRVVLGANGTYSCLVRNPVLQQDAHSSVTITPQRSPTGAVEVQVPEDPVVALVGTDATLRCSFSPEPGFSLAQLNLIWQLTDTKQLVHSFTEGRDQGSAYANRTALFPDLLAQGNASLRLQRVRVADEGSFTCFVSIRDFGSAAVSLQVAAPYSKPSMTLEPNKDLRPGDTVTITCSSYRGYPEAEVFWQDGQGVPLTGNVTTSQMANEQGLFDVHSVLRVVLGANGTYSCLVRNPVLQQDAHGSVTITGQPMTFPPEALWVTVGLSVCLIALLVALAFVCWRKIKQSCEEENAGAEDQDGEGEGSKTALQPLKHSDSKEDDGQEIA

B1: PL-1 (bispecific antibody, human IgG1, kappa, L234A L235A)
heavy 1: not shown
light 1: DIVLTQSPASLAVSPGQRATITCRASESVSIHGTHLMHWYQQKPGQPPKLLIYAASKLESGVPARFSGSGSGTDFTLTINPVEAEDTANYYCQQSFEDPLTFGQGTKLEIKGGGGSGIPPKIECLPIDISIDEGKVLTVASAFTGEPTPEVTWSTGGRKIHSQEQGRFHIENTDDLTTLIIKDVQKQDGGLYTLTLRNEFGSDSATVNIHIRSI
heavy 2: not shown
light 2: not shown
B2: PL-11 (bispecific antibody, human IgG1, kappa, L234A L235A)
heavy 1: not shown
light 1: B1 light 1 with G112R, G113T, G114V, G115A, L176S, I180T
heavy 2: not shown
light 2: not shown
B3: PL-12 (bispecific antibody, human IgG1, kappa, L234A L235A)
heavy 1: not shown
light 1: B1 light 1 with G112R, G113T, G114V, G115A, V136C, L176S, I180T
heavy 2: not shown
light 2: not shown
B4: PL-14 (bispecific antibody, human IgG1, kappa, L234A L235A)
heavy 1: not shown
light 1: B1 light 1 with G112R, G113T, G114V, G115A, L176S, I180T
heavy 2: not shown
light 2: not shown
B5: PL-13 (bispecific antibody, human IgG1, kappa, L234A L235A)
heavy 1: not shown
light 1: B1 light 1 with G112R, G113T, G114V, G115A, A142C, L176S, I180T
heavy 2: not shown
light 2: not shown
B6: PL-17 (bispecific antibody, human IgG1, kappa, L234A L235A)
heavy 1: not shown
light 1: B1 light 1 with G112R, G113T, G114V, G115A, L176S, I180T
heavy 2: not shown
light 2: not shown
B7: PL-18 (bispecific antibody, human IgG1, kappa, L234A L235A)
heavy 1: not shown
light 1: B1 light 1 with G112R, G113T, G114V, G115A, V136C, L176S, I180T
heavy 2: not shown
light 2: not shown
B8: PL-19 (bispecific antibody, human IgG1, kappa, L234A L235A)
heavy 1: not shown
light 1: B1 light 1 with G112R, G113T, G114V, G115A, A142C, L176S, I180T
heavy 2: not shown
light 2: not shown
B9: PL-15 (bispecific antibody, human IgG1, kappa, L234A L235A)
heavy 1: not shown
light 1: B1 light 1 with G112R, G113T, G114V, G115A, V136C, L176S, I180T
heavy 2: not shown
light 2: not shown
B10: PL-9 (bispecific antibody, human IgG1, kappa, L234A L235A)
heavy 1: not shown
light 1: B1 light 1 with V136C, L176S, I180T
heavy 2: not shown
light 2: not shown
B11: PL-7 (bispecific antibody, human IgG1, kappa, L234A L235A)
heavy 1: not shown
light 1: B1 light 1 with A142C, L176S, I180T
heavy 2: not shown
light 2: not shown
B12: PL-4 (bispecific antibody, human IgG1, kappa, L234A L235A)
heavy 1: not shown
light 1: B1 light 1 with A142C, L176S, I180T
heavy 2: not shown
light 2: not shown
B13: PL-8 (bispecific antibody, human IgG1, kappa, L234A L235A)
heavy 1: not shown
light 1: B1 light 1 with L176S, I180T
heavy 2: not shown
light 2: not shown
B14: PL-2 (bispecific antibody, human IgG1, kappa, L234A L235A)
heavy 1: not shown
light 1: B1 light 1 with L176S, I180T
heavy 2: not shown
light 2: not shown
B15: PL-10 (bispecific antibody, human IgG1, kappa, L234A L235A)
heavy 1: not shown
light 1: B1 light 1 with A142C, L176S, I180T
heavy 2: not shown
light 2: not shown
B16: PL-6 (bispecific antibody, human IgG1, kappa, L234A L235A)
heavy 1: not shown
light 1: B1 light 1 with V136C, L176S, I180T
heavy 2: not shown
light 2: not shown
B17: PL-5 (bispecific antibody, human IgG1, kappa, L234A L235A)
heavy 1: not shown
light 1: B1 light 1 with L176S, I180T
heavy 2: not shown
light 2: not shown
B18: PL-3 (bispecific antibody, human IgG1, kappa, L234A L235A)
heavy 1: not shown
light 1: B1 light 1 with V136C, L176S, I180T
heavy 2: not shown
light 2: not shown
B19: N25 (antibody)
heavy: not shown
light: EIVLTQSPGTLSLSPGERATLSCRASQNINNRFLAWYQQRPGQAPRLLIYAASSRATGVPDRFSGSGSGTDFTLTISRLEAEDFAMYHCQQYGSFPRTFGQGTMVDIKGGGGSGGGGSSGAPRFLTRPKAFVVSVGKDATLSSQIVGNPTPQVSWEKDQQPVAAGARFRLAQDGDLYRLTILDLALGDSGQYVSRARNAIGEAFACVGLQVDAEA
B20: N27 (antibody)
heavy: not shown
light: B19 light
B21: N17 (antibody)
heavy: not shown
light: EIVLTQSPGTLSLSPGERATLSCRASQNINNRFLAWYQQRPGQAPRLLIYAASSRATGVPDRFSGSGSGTDFTLTISRLEAEDFAMYHCQQYGSFPRTFGQGTMVDIKDQPQFSGAPRFLTRPKAFVVSVGKDATLSSQIVGNPTPQVSWEKDQQPVAAGARFRLAQDGDLYRLTILDLALGDSGQYVSRARNAIGEAFACVGLQVDAEA
B22: N20 (antibody)
heavy: not shown
light: B21 light with L120K, T175K
B23: N26 (antibody)
heavy: not shown
light: B21 light with D109G, Q110G, P111G, Q112G, F113S
B24: N18 (antibody)
heavy: not shown
light: B21 light
B25: N23 (antibody)
heavy: not shown
light: B21 light with L120R, T175H
B26: N21 (antibody)
heavy: not shown
light: B21 light with L120K, T175H
B27: N19 (antibody)
heavy: not shown
light: B21 light with L120K, T175K
B28: N24 (antibody)
heavy: not shown
light: B21 light with L120R, T175H
B29: N22 (antibody)
heavy: not shown
light: B21 light with L120R, T175K
B30: N14 (antibody)
heavy: not shown
light: EIVLTQSPGTLSLSPGERATLSCRASQNINNRFLAWYQQRPGQAPRLLIYAASSRATGVPDRFSGSGSGTDFTLTISRLEAEDFAMYHCQQYGSFPRTFGQGTMVDIKSGAPRFLTRPLAFVVSVGKDATLSSQIVGNPTPQVSWEKDQQPVAAGARFRLAQDGDLYRLKILDLALGDSGQYVSRARNAIGEAFACVGLQVDAEA
B31: N16 (antibody)
heavy: not shown
light: B30 light with K170H
B32: N10 (antibody)
heavy: not shown
light: B30 light with L119K, K170T
B33: N13 (antibody)
heavy: not shown
light: B30 light with L115K, L119K, K170H
B34: N15 (antibody)
heavy: not shown
light: B30 light
B35: V5 (antibody)
heavy: not shown
light: QIVLTQSPAILSASPGEKVTMTCRASSSVSYMNWYQQKPGSSPKPWIYATSNLASGVPARFSVSVSGTSHSLTISRVEAEDAATYYCQQWSSNPLTFGAGTKLELKGIPPKIEALPSDISIDEGKVLTVACAFTGEPTPEVTWSCGGRKIHSQEQGRFHIENTDDLTTLIIMDVQKQDGGLYTLSLGNEFGSDSATVNIHIRSI
B36: V6 (antibody)
heavy: not shown
light: B35 light
B37: S0 (antibody, human IgG1, kappa)
heavy: not shown
light: DIQMTQSPASLSASVGDRVTITCRASENIFSYLAWYQQKPGKSPKLLVYNTRTLAEGVPSRFSGSGSGTDFSLTISSLQPEDFATYYCQHHYGTPFTFGSGTKLEIKRTVAAPSVFIFPPSDEQLKSGTASVVCLLNNFYPREAKVQWKVDNALQSGNSQESVTEQDSKDSTYSLSSTLTLSKADYEKHKVYACEVTHQGLSSPVTKSFNRGEC
notes: also called SO

biological target: T3, hPDL1 antigen (human, UniProt Q9NZQ7 19-239, limits assumed); assay: ELISA
T3 construct: bought
T3 sequence (Q9NZQ7 19-239 limits assumed): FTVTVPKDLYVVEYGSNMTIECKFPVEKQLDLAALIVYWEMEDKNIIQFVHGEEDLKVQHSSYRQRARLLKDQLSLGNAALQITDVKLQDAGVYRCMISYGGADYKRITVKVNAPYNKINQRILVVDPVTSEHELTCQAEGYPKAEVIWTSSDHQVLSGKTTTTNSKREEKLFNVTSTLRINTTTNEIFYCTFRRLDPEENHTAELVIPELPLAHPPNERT
Protocol: For an antibody targeting a soluble protein, the binding activity of the antibody against the soluble protein was detected by ELISA. […] After the blocking was completed, the blocking solution was discarded; and the plate was washed 3 times with a PBST buffer (pH 7.4, PBS containing 0.1% tween-20). 100 μL of the antibody solution diluted in a gradient was added to each well, and the mixture was incubated at 37° C. for 1 h. After the incubation was completed, the plate was washed 3 times with PBST. […] The plate was washed 3 times with PBST. […] The reaction was stopped by adding 50 μL of 1 M H₂SO₄ to each well. The absorbance values at 450 nm were read on a microplate reader, the binding curves of the antibodies to an antigen were fitted with software, and the EC₅₀ values were calculated.

Row | EC50 [nM] | Binder
1 | 1.6 | B1
2 | 0.6 | B2
3 | 0.5 | B3
4 | 1.3 | B4
5 | 0.5 | B5
6 | 1.4 | B6
7 | 1.6 | B7
8 | 1.6 | B8
9 | 1.4 | B9
10 | 0.6 | B10
11 | 0.5 | B11
12 | 0.7 | B12
13 | 1.4 | B13
14 | 0.5 | B14
15 | 0.6 | B15
16 | 0.8 | B16
17 | 0.7 | B17
18 | 0.6 | B18

biological target: T1, CEA on MKN45 cells; assay: FACS, MKN45 cells

Row | EC50 [nM] | Binder
19 | 0.62 | B19
20 | 0.67 | B20
21 | 2.2 | B21
22 | 2.8 | B22
23 | 0.84 | B23
24 | 3.2 | B24
25 | 9.4 | B25
26 | 5.2 | B26
27 | 4.3 | B27
28 | 6.7 | B28
29 | 4.5 | B29
30 | 1.9 | B30
31 | 3.4 | B31
32 | 3 | B32
33 | 2.9 | B33
34 | 2.6 | B34

biological target: T2, B7H3 on the recombinant cell line …; assay: FACS, CT26-B7H3 cells

Row | EC50 [nM] | Binder
35 | 3.2 | B35
36 | 4.7 | B36
37 | 1.01 | B37
